The source of these data is patent publication US20190185532A1 (UNIVERSITY OF BIRMINGHAM, published 2019).

The target in assay [1] is T1, MMRN2^CC-C1q (coiled-coil and C1q domains of human MMRN2, His tag) (human, UniProt Q9H8L6 133-949).
T1 construct: domain: coiled-coil and C1q; HEK293T lysate, blotted under reducing conditions; not shown: C-terminal BirA and His tags of vector pHL-Avitag3
T1 sequence (looked up): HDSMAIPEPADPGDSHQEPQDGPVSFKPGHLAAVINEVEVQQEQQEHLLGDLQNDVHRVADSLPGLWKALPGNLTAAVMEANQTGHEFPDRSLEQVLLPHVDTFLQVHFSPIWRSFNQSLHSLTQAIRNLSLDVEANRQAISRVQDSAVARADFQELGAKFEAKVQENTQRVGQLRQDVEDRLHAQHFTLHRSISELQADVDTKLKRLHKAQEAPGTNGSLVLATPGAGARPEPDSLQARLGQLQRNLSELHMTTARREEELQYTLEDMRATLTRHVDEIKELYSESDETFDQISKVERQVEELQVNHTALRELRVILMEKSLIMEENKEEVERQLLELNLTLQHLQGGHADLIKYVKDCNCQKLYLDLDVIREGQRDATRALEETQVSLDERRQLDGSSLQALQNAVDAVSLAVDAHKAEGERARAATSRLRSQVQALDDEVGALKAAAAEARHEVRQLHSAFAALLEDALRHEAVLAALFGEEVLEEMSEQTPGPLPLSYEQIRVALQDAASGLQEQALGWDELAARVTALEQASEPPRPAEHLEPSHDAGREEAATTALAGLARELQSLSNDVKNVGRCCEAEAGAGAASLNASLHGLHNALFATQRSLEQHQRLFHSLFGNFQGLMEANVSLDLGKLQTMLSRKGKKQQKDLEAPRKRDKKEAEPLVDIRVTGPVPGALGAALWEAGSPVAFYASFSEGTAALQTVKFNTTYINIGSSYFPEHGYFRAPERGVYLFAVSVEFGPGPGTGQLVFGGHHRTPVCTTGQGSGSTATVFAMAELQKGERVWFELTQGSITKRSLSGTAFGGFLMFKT
Put plainly: far western blot, reduced; HEK293T lysates of His-tagged MMRN2 constructs probed with CLEC14A-ECD-Fc. An excerpt:
(§1) FIG. 2. […] (A) Diagrams of MMRN2 truncation mutants, showing the elastin microfibril interface (EMI) domain, coiled-coil (CC) domain and complement related C1q domain. The minimal CLEC14A binding fragment is highlighted in black. (B,C) HEK293T were transfected with truncation mutants. Lysates were far western blotted under reduced conditions with CLEC14A extracellular domain fused to an Fc tag (CLEC14A-ECD-Fc) and western blotted by use of His tag antibodies. (B) The smallest binding fragment was identified as MMRN2⁴⁸⁷⁻⁸²⁰, MMRN2^FL fails to bind CLEC14A-ECD-Fc. (C) The smallest MMRN2 fragment binding CLEC14A is MMRN2⁵³⁰⁻⁶²⁴. (D) MMRN2⁴⁹⁵⁻⁶⁷⁴ and MMRN2⁴⁹⁵⁻⁶⁰³ bind to streptavidin under reducing conditions after biotinylation. (E) Flow cytometry histograms of HEK293T transfected with GFP tagged CTLD group 14 family members and stained with biotinylated MMRN2⁴⁹⁵⁻⁶⁷⁴ (grey line), confirming binding to CLEC14A and CD93 but not thrombomodulin. Streptavidin-PE was used as a control for background binding (grey shaded).
(§2) Whole cell protein lysates were made by incubating with lysis buffer (1% (v/v) NP40, 10 mM Tris pH7.5, 150 mM NaCl and 1 mM EDTA) and pelleting insoluble material. […] The epitope tag of each probed protein was detected with secondary antibody incubation (anti-His or anti-Fc HRP conjugate) and then tertiary anti-mouse HRP for the case of anti-His.

The target of assay [2] is T2, MMRN2^EMI-CC (EMI and coiled-coil domains of human MMRN2, His tag) (human, UniProt Q9H8L6 23-820).
T2 construct: domain: EMI and coiled-coil; HEK293T lysate, blotted under reducing conditions; not shown: C-terminal BirA and His tags of vector pHL-Avitag3
T2 sequence (looked up): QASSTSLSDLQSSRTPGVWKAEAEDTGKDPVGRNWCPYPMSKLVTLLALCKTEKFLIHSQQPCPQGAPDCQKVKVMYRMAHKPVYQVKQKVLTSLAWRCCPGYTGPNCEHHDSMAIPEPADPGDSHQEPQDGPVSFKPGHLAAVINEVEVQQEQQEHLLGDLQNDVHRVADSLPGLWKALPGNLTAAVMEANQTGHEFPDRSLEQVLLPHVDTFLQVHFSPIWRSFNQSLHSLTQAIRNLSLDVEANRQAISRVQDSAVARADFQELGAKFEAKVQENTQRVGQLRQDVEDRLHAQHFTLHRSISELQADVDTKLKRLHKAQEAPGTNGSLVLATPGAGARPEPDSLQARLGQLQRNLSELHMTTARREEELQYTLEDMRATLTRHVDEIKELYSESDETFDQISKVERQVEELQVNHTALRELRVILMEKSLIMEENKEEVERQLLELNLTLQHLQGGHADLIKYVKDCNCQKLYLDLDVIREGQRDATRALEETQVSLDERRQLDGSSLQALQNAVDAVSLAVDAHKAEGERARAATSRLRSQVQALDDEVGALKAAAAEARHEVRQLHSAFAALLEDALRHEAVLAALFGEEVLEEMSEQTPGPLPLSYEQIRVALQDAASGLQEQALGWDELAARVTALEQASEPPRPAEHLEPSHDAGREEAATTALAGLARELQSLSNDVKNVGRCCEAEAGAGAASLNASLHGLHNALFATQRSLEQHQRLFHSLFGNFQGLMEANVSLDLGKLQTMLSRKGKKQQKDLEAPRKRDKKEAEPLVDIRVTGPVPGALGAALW
The description is as above.
Source text: as §1, §2

B1: CLEC14A-ECD-Fc (human CLEC14A extracellular domain fused to an Fc tag) (Fc fusion)
chain: EHPTADRAGCSASGACYSLHHATMKRQAAEEACILRGGALSTVRAGAELRAVLALLRAGPGPGGGSKDLLFWVALERRRSHCTLENEPLRGFSWLSSDPGGLESDTLQWVEEPQRSCTARRCAVLQATGGVEPAGWKEMRCHLRANGYLCKYQFEVLCPAPRPGAASNLSYRAPFQLHSAALDFSPPGTEVSALCRGQLPISVTCIADEIGARWDKLSGDVLCPCPGRYLRAGKCAELPNCLDDLGGFACECATGFELGKDGRSCVTSGEGQPTLGGTGVPTRRPPATATSPVPQRTWPIRVDEKLGETPLVPEQDNSVTSIPEIPRWGSQSTMSTLQMSLQAESKATITPSGSVISKFNSTTSSATPQAFDSSS
notes: Expressed in HEK293T cells; also called hCLEC14A-ECD-Fc; C14A-Fc; not shown: human IgG Fc tag
As for B1, the binding result in assay [1] and in assay [2] was “binds” each time.
